Experimental data reported in publication PMC11643043.

Target: soluble CD20^Avi
Assay: SEC-MALS

## soluble CD20^Avi
  stoichiometry N: 2
